Data on three molecules can be found in patent publication US20220281998A1 (AZUSAPHARMA SCIENCES, published 2022).

Assay [1] concerns the target T1, recombinant biotinylated HER2 (manufactured by ACROBiosystems) (human, UniProt P04626 23-652, biotinylated (site not stated)).
T1 construct: also called human HER2
Description: sandwich ELISA: immobilised human CD3E/CD3D heterodimer, BsAb, detection with biotinylated HER2. On the technique in general: An ELISA detects its analyte on a solid surface through an enzyme-linked reagent.

The target in assay [2] is human EGFR on human cancer cell lines (HCT116, A-431, NCI-H1975, HT-29, RKO) (human, UniProt P00533 25-1210). The experiment in a line: cell-based or functional assay.
Assay [3] has as its target T2, human CD3E/CD3D heterodimer recombinant protein (manufactured by ACROBiosystems) (human, UniProt P07766 23-126; P04234 22-105).
T2 construct: Bought reagent, immobilised on ELISA plates
Description: ELISA, immobilised human CD3E/CD3D heterodimer, 10-1000 ng/mL BsAb, absorbance rose with concentration.

The target in assay [4] is T2, human CD3E/CD3D heterodimer recombinant …. Description: sandwich ELISA: immobilised human CD3E/CD3D heterodimer, BsAb, biotinylated EpCAM.
Description: 25 μL of a solution containing 2.5 μg/mL human CD3E/CD3D heterodimer recombinant protein (available from ACROBiosystems) was dispensed into each well of a 96-well plate, followed by standing overnight at 4° C. for immobilization. The solution after immobilization was removed, and each well was washed with 200 μL of PBS-T 3 times. Thereafter, 200 μL of a blocking solution (Blocking One, manufactured by NACALAI TESQUE, INC.) diluted 5-fold with distilled water was dispensed, followed by standing at 25° C. for 2 hours for blocking treatment. The blocking solution in each well was removed, and the well was washed with 200 μL of PBS-T 3 times. 100 (ng/mL) or 1000 (ng/mL) EpCAM×CD3 diabody-type BsAb and 100 (ng/mL) or 1000 (ng/mL) EGFR×CD3 diabody-type BsAb as a negative control were each diluted 50-fold with a signal enhancer HIKARI A solution (manufactured by NACALAI TESQUE, INC.) containing 1% BSA, and 25 μL of each solution was dispensed into each well after blocking, followed by standing at 25° C. for 2 hours for reaction treatment between the antibody (EpCAM×CD3 diabody-type BsAb) and the antigen (immobilized human CD3E/CD3D heterodimer recombinant protein). Thereafter, the solution in each well was removed, and the well was washed with 200 μL of PBS-T 3 times.
Assay [5] addresses T3, human EpCAM on HCT116 cells (EpCAM-positive human colon cancer cell line) (human, UniProt P16422 24-314).
T3 sequence (looked up): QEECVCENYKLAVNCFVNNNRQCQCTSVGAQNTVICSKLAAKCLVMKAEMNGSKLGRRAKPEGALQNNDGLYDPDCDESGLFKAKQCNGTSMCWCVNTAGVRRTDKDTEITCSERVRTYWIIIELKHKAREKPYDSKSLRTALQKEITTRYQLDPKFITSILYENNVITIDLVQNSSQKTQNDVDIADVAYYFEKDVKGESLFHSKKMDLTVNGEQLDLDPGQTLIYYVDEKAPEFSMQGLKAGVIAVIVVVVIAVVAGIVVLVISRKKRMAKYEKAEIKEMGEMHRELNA
Description: cell-based or functional assay.

Assay [6] has as its target recombinant biotinylated human EGFR (manufactured by ACROBiosystems) (human, UniProt P00533 25-645, biotinylated (site not stated)). The experiment in a line: sandwich ELISA: immobilised human CD3E/CD3D heterodimer, BsAb, detection with biotinylated human EGFR.
The target of assay [7] is T2, human CD3E/CD3D heterodimer recombinant …. The experiment in a line: sandwich ELISA: immobilised human CD3E/CD3D heterodimer, BsAb, biotinylated HER2.

T2 sequence (P07766 23-126 limits assumed, chain 1 of 2): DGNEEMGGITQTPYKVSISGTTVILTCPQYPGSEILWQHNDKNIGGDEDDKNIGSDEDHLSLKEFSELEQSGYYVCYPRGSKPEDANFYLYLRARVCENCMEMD
T2 sequence (P04234 22-105 limits assumed, chain 2 of 2): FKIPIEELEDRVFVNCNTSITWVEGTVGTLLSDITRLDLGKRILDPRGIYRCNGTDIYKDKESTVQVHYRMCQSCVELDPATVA

B1: LH31 diabody-type BsAb (EGFR×CD3 diabody-type BsAb derived from DUM-31H strain) (bispecific antibody)
chain 1: ATLTPDIQMTQSPSSLSASVGDRVTITCRASQDIRNYLNWYQQKPGKAPKLLIYYTSRLESGVPSRFSGSGSGTDYTLTISSLQPEDFATYYCQQGNTLPWTFGQGTKVEIKAAGGGGSEVQLVESGGGLVQPGGSLRLSCAASGFTLSGDWIHWVRQAPGKGLEWLGEISAAGGYTDYADSVKGRFTISADTSKNTAYLQMNSLRAEDTAVYYCARESRVSFEAAMDYWGQGTLVTVSSAAAAEQKLISEEDLNLGGGMRGSHHHHHH
chain 2: ATLTPDIQMTQSPSSLSASVGDRVTITCRASQDLATDVAWYQQKPGKAPKLLIYSASFLYSGVPSRFSGSGSGTDFTLTISSLQPEDFATYYCQQSEPEPYTFGQGTKVEIKAAGGGGSEVQLVESGGGLVQPGGSLRLSCAASGYSFTGYTMNWVRQAPGKGLEWVALINPYKGVSTYNQKFKDRFTISVDKSKNTAYLQMNSLRAEDTAVYYCARSGYYGDSDWYFDVWGQGTLVTVSSAAAEQKLISEEDLNLGGGMRGSHHHHHH
notes: Heterodimer of polypeptides 1 and 2, secreted by Bifidobacterium longum 105-A carrying pLH31-L5, purified through the His tag; also called LH31 polypeptide 1 + LH31 polypeptide 2 with SP50-L5
Regarding B1, the binding result is recorded as “no binding” in assay [1] and “binds” in assay [3]. Besides, the “EC50: concentration that reduced the viability of HCT116 cells to 50% (T-LAK:HCT116 5:1, 24 h)” value in assay [2] was found to be 0.032 nM.

B2: EUM-H diabody-type BsAb (EpCAM×CD3 diabody-type BsAb derived from EUM-H strain) (bispecific antibody)
chain 1: ATDIQMTQSPSSLSASVGDRVTITCRASQDIRNYLNWYQQKPGKAPKLLIYYTSRLESGVPSRFSGSGSGTDYTLTISSLQPEDFATYYCQQGNTLPWTFGQGTKVEIKAAGGGGSEVQLLEQSGAELVRPGTSVKISCKASGYAFTNYWLGWVKQRPGHGLEWIGDIFPGSGNIHYNEKFKGKATLTADKSSSTAYMQLSSLTFEDSAVYFCARLRNWDEPMDYWGQGTTVTVSSAAAEQKLISEEDLNLGGGMRGSHHHHHH
chain 2: ADELVMTQSPSSLTVTAGEKVTMSCKSSQSLLNSGNQKNYLTWYQQKPGQPPKLLIYWASTRESGVPDRFTGSGSGTDFTLTISSVQAEDLAVYYCQNDYSYPLTFGAGTKLEIKAAGGGGSEVQLVESGGGLVQPGGSLRLSCAASGYSFTGYTMNWVRQAPGKGLEWVALINPYKGVSTYNQKFKDRFTISVDKSKNTAYLQMNSLRAEDTAVYYCARSGYYGDSDWYFDVWGQGTLVTVSSAAAEQKLISEEDLNLGGGMRGSHHHHHH
notes: Secreted by Bifidobacterium longum 105-A carrying pEUM-H; purified through the His tag; also called EUM-H polypeptide 1 + EUM-H polypeptide 2
With B2, the binding result in assay [4] is reported as “binds”. Also, the “EC50, cytotoxic activity on HCT116 cells with T-LAKs” value in assay [5] came out at 0.0173 nM.

B3: LH36 diabody-type BsAb (HER2×CD3 diabody-type BsAb derived from CUM-36-1H strain) (bispecific antibody)
chain 1: ATLTPDIQMTQSPSSLSASVGDRVTITCKASQDVSIGVAWYQQKPGKAPKLLIYSASYRYTGVPSRFSGSGSGTDFTLTISSLQPEDFATYYCQQYYIYPYTFGQGTKVEIKAAGGGGSEVQLVESGGGLVQPGGSLRLSCAASGYSFTGYTMNWVRQAPGKGLEWVALINPYKGVSTYNQKFKDRFTISVDKSKNTAYLQMNSLRAEDTAVYYCARSGYYGDSDWYFDVWGQGTLVTVSSAAAEQKLISEEDLNLGGGMRGSHHHHHH
chain 2: ATDIQMTQSPSSLSASVGDRVTITCRASQDIRNYLNWYQQKPGKAPKLLIYYTSRLESGVPSRFSGSGSGTDYTLTISSLQPEDFATYYCQQGNTLPWTFGQGTKVEIKAAGGGGSEVQLVESGGGLVQPGGSLRLSCAASGFTFTDYTMDWVRQAPGKGLEWVADVNPNSGGSIYNQRFKGRFTLSVDRSKNTLYLQMNSLRAEDTAVYYCARNLGPSFYFDYWGQGTLVTVSSAAAEQKLISEEDLNLGGGMRGSHHHHHH
notes: Secreted by Bifidobacterium longum 105-A carrying pLH36-1; purified through the His tag; also called LH36 polypeptide 1 + LH36 polypeptide 2 (SP50-L2)
Consider B3, for which the binding result in assay [6] is listed as “no binding”; in assay [7], “binds”.
